Source: patent US20250376519A1 (JIANGSU HENGRUI PHARMACEUTICALS, published 2025)

T1: human DLL3 (ACRO, DLL3-H52H4) (human, UniProt Q9NYJ7 27-492)
T1 construct: Bought
T1 sequence: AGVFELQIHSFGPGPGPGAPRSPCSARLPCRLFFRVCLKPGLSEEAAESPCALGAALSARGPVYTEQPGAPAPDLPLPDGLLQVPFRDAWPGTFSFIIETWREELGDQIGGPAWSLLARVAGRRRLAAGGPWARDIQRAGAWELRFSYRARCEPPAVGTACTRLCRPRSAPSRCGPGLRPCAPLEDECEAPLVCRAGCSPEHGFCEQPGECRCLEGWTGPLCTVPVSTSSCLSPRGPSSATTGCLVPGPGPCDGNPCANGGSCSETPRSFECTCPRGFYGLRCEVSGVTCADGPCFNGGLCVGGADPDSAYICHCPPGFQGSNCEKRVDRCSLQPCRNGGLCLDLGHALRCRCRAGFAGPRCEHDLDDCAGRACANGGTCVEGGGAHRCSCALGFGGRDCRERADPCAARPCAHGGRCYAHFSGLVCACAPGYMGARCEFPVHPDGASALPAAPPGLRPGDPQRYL


Target: T1, human DLL3 (ACRO, DLL3-H52H4)
Assay: SPR Biacore 8K, Ab captured on Protein A
Excerpt: Test antibodies were affinity-captured with a Protein A biosensor chip (Cat. #29127556, Cytiva) for 18 seconds, and then the antigens human DLL3 (ACRO, DLL3-H52H4), cynomolgus monkey DLL3 (KACTUS, DLL-RM103), mouse DLL3 (KACTUS, DLL-MM103), human CD3D&3E (ACRO, CDD-H52W1), and monkey CD3D&3E (ACRO, CDD-C52W4) were allowed to flow through the surface of the chip for 180 seconds, followed by 600 seconds of dissociation. Reaction signals were detected in real time using a Biacore 8K (Cytiva) instrument to obtain association and dissociation curves. After the dissociation in each experimental cycle, the chip was washed and regenerated with a 10 mM glycine-hydrochloric acid solution (pH 1.5, Cat. #BR-1003-54, Cytiva). Data fitting was performed using a 1:1 Model.

Kd	koff	kon	Binder
1.97 nM	0.00307 s⁻¹	1.56e+06 M⁻¹ s⁻¹	hu98L1H2 (antibody, human IgG1, kappa, V domains shown) VH: EVQLVESGGGLVQPGGSLRLSCAASGFTFSDYGIHWVRQAPGKGLEWVAYISSGGYTIYYADTVKGRFTISRDNAKNSLYLQMNSLRAEDTAVYYCARGDYEDIFYTMDYWGQGTTVTVSS VL: DIQMTQSPSSLSASVGDRVTITCRASRDITKFLNWYQQKPGKAPKLLIYYTSRLHSGVPSRFSGSGSGTDFTLTISSLQPEDFATYYCQQGNTLPWTFGGGTKVEIKR
1.16 nM	0.00115 s⁻¹	985000 M⁻¹ s⁻¹	hu30L1H7 (antibody, human IgG1, kappa) heavy: not shown light: DIVMTQSPDSLAVSLGERATINCKASENVGYVSWYQQKPGQPPKLLIYGASNRYTGVPDRFSGSGSGTDFTLTISSLQAEDVAVYYCGQSYSYPLTFGQGTKLEIKRTVAAPSVFIFPPSDEQLKSGTASVVCLLNNFYPREAKVQWKVDNALQSGNSQESVTEQDSKDSTYSLSSTLTLSKADYEKHKVYACEVTHQGLSSPVTKSFNRGEC
2.83 nM	0.00117 s⁻¹	414000 M⁻¹ s⁻¹	hu30L1H11 (antibody, human IgG1, kappa, V domains shown) VH: EVRLVQFGAVVKKPGASVKVSCKASGYTFTDYYMNWVRQAPGQSLEWMGIINPYTGDTSYNQKFRGRVTLTVDKSSSTAYMELSSLTSEDTAVYYCARYHYGPHLEGYFDVWGQGTTVTVSS VL: DIVMTQSPDSLAVSLGERATINCKASENVGYVSWYQQKPGQPPKLLIYGASNRYTGVPDRFSGSGSGTDFTLTISSLQAEDVAVYYCGQSYSYPLTFGQGTKLEIKR
2.34 nM	0.000981 s⁻¹	419000 M⁻¹ s⁻¹	hu30L1H9 (antibody, human IgG1, kappa, V domains shown) VH: EVRLVQSGAEVKKPGASVKVSCKASGYTFTDYYMNWVRQAPGQSLEWIGIINPYTGDTSYNQKFRGRATLTVDKSASTAYMELSSLRSEDTAVYYCARYHYGPHLEGYFDVWGQGTTVTVSS VL: DIVMTQSPDSLAVSLGERATINCKASENVGYVSWYQQKPGQPPKLLIYGASNRYTGVPDRFSGSGSGTDFTLTISSLQAEDVAVYYCGQSYSYPLTFGQGTKLEIKR
2.16 nM	0.000919 s⁻¹	427000 M⁻¹ s⁻¹	hu30L4H10 (antibody, human IgG1, kappa, V domains shown) VH: EVRLVQSGAEVKKPGASVKVSCKASGYTFTDYYMNWVRQSHGQSLEWMGIINPYTGDTSYNQKFRGRVTLTVDKSASTAYMELSSLRSEDTAVYYCARYHYGPHLEGYFDVWGQGTTVTVSS VL: DIQMTQSPSSLSASVGDRVTITCKASENVGYVSWYQQKPGKAPKLLIYGASNRYTGVPSRFSGSGSGTDFTLTISSLQPEDFATYYCGQSYSYPLTFGQGTKLEIKR
2.54 nM	0.00102 s⁻¹	400000 M⁻¹ s⁻¹	hu30L5H8 (antibody, human IgG1, kappa, V domains shown) VH: EVRLVQFGAVVKKPGASVKVSCKASGYTFTDYYMNWVRQAPGQSLEWMGIINPYTGDTSYNQKFRGRVTLTVDKSSSTAYMELSSLRSEDTAVYYCARYHYGPHLEGYFDVWGQGTTVTVSS VL: DIQMTQSPSSLSASVGDRVTITCKASENVGYVSWYQQKPGKSPKLLIYGASNRYTGVPDRFSGSGSGTDFTLTISSLQPEDFATYYCGQSYSYPLTFGSGTKLEIKR
0.424 nM	0.000811 s⁻¹	1.91e+06 M⁻¹ s⁻¹	hu6L4H6 (antibody, human IgG1, kappa, V domains shown) VH: EVQLVQSGSELKKPGASVKVSCKASGYTFTDYYMNWVRQAPGQGLEWMGIINPYSGVTIYNHKFKGRFVLSVDKSSNTAYLQISSLKAEDTAVYYCARQDSLLDYAMDYWGQGTTVTVSS VL: DIQMTQSPSSLSASVGDRVTITCHASQGISGNMGWLQQKPGKAPKGLIYHGANLEDGVPSRFSGSGSGADYTLTISSLQPEDFADYYCVQYAQFPYTFGGGTKVEIKR

The remaining lines, values behind:

Binder	Kd	koff	kon
M98CH1 (antibody, human IgG1, kappa, V domains shown, chimeric antibody of mAb98, human IgG1/kappa; also called M98CHI) VH: EVQLVESGGGLVKPGGSLKLSCAASGFTFSDYGIHWVRQAPEKGLEWVAYISSGGYTIYYADTVKGRFTISRDNAKNTLFLQMTSLRSEDTAMYYCARGDYDDIFYTMDYWGQGTSVTVSS VL: DIQMTQTTSSLSASLGDRVTISCRASRDITKFLNWYQQKPDGTVKLLIYYTSRLHSGVPSRFSGSGSGTDYSLTISNLDQEDIATYFCQQGNTLPWTFGGGTKLDIKR	0.429 nM	0.000682 s⁻¹	1.59e+06 M⁻¹ s⁻¹
M6CH1 (antibody, human IgG1, kappa, V domains shown, chimeric antibody of mAb6, human IgG1/kappa; also called M6CHI) VH: EVQLQQSGPVLVKPGASVKMSCKASGYTFTDYYMNWVKQSHGKSLEWIGIINPYSGVTIYNHKFKGKATLTVDKSSNTAYMELNSLTSEDSAVYYCARQDSLLDYAMDYWGQGTSVTVSS VL: DILMTQSPSSMSVSLGDTVSITCHASQGISGNMGWLQQKPGKSFKGLIYHGANLEDGVPSRFSGSGSGADYSLTISSLESEDFADYYCVQYAQFPYTFGGGTKLEIKR	0.681 nM	0.000657 s⁻¹	965000 M⁻¹ s⁻¹
hu6L1H1 (antibody, human IgG1, kappa, V domains shown) VH: EVQLVQSGAEVKKPGASVKVSCKASGYTFTDYYMNWVRQAPGQRLEWMGIINPYSGVTIYNHKFKGRVTITVDKSASTAYMELSSLRSEDTAVYYCARQDSLLDYAMDYWGQGTTVTVSS VL: DIQMTQSPSSLSASVGDRVTITCHASQGISGNMGWLQQKPGKAPKGLIYHGANLEDGVPSRFSGSGSGTDFTLTISSLQPEDFATYYCVQYAQFPYTFGGGTKVEIKR	2.81 nM	0.00225 s⁻¹	798000 M⁻¹ s⁻¹
hu6L3H1 (antibody, human IgG1, kappa, V domains shown) VH: EVQLVQSGAEVKKPGASVKVSCKASGYTFTDYYMNWVRQAPGQRLEWMGIINPYSGVTIYNHKFKGRVTITVDKSASTAYMELSSLRSEDTAVYYCARQDSLLDYAMDYWGQGTTVTVSS VL: DIQMTQSPSSLSASVGDRVTITCHASQGISGNMGWLQQKPGKSFKGLIYHGANLEDGVPSRFSGSGSGADYTLTISSLQPEDFATYYCVQYAQFPYTFGGGTKVEIKR	2.02 nM	0.00144 s⁻¹	715000 M⁻¹ s⁻¹
hu6L1H3 (antibody, human IgG1, kappa, V domains shown) VH: EVQLVQSGAEVKKPGASVKVSCKASGYTFTDYYMNWVRQAPGQRLEWIGIINPYSGVTIYNHKFKGRATLTVDKSANTAYMELSSLRSEDTAVYYCARQDSLLDYAMDYWGQGTTVTVSS VL: DIQMTQSPSSLSASVGDRVTITCHASQGISGNMGWLQQKPGKAPKGLIYHGANLEDGVPSRFSGSGSGTDFTLTISSLQPEDFATYYCVQYAQFPYTFGGGTKVEIKR	2.76 nM	0.00224 s⁻¹	812000 M⁻¹ s⁻¹
hu6L2H3 (antibody, human IgG1, kappa, V domains shown) VH: EVQLVQSGAEVKKPGASVKVSCKASGYTFTDYYMNWVRQAPGQRLEWIGIINPYSGVTIYNHKFKGRATLTVDKSANTAYMELSSLRSEDTAVYYCARQDSLLDYAMDYWGQGTTVTVSS VL: DIQMTQSPSSLSASVGDRVTITCHASQGISGNMGWLQQKPGKAPKGLIYHGANLEDGVPSRFSGSGSGADYTLTISSLQPEDFATYYCVQYAQFPYTFGGGTKVEIKR	2.01 nM	0.00139 s⁻¹	695000 M⁻¹ s⁻¹
hu6L3H3 (antibody, human IgG1, kappa, V domains shown) VH: EVQLVQSGAEVKKPGASVKVSCKASGYTFTDYYMNWVRQAPGQRLEWIGIINPYSGVTIYNHKFKGRATLTVDKSANTAYMELSSLRSEDTAVYYCARQDSLLDYAMDYWGQGTTVTVSS VL: DIQMTQSPSSLSASVGDRVTITCHASQGISGNMGWLQQKPGKSFKGLIYHGANLEDGVPSRFSGSGSGADYTLTISSLQPEDFATYYCVQYAQFPYTFGGGTKVEIKR	1.88 nM	0.00135 s⁻¹	718000 M⁻¹ s⁻¹
hu6L1H2 (antibody, human IgG1, kappa, V domains shown) VH: EVQLVQSGAEVKKPGASVKVSCKASGYTFTDYYMNWVRQAPGQRLEWMGIINPYSGVTIYNHKFKGRVTLTVDKSANTAYMELSSLRSEDTAVYYCARQDSLLDYAMDYWGQGTTVTVSS VL: DIQMTQSPSSLSASVGDRVTITCHASQGISGNMGWLQQKPGKAPKGLIYHGANLEDGVPSRFSGSGSGTDFTLTISSLQPEDFATYYCVQYAQFPYTFGGGTKVEIKR	2.19 nM	0.00173 s⁻¹	787000 M⁻¹ s⁻¹
hu6L2H1 (antibody, human IgG1, kappa, V domains shown) VH: EVQLVQSGAEVKKPGASVKVSCKASGYTFTDYYMNWVRQAPGQRLEWMGIINPYSGVTIYNHKFKGRVTITVDKSASTAYMELSSLRSEDTAVYYCARQDSLLDYAMDYWGQGTTVTVSS VL: DIQMTQSPSSLSASVGDRVTITCHASQGISGNMGWLQQKPGKAPKGLIYHGANLEDGVPSRFSGSGSGADYTLTISSLQPEDFATYYCVQYAQFPYTFGGGTKVEIKR	2.19 nM	0.00155 s⁻¹	709000 M⁻¹ s⁻¹
hu6L3H2 (antibody, human IgG1, kappa, V domains shown) VH: EVQLVQSGAEVKKPGASVKVSCKASGYTFTDYYMNWVRQAPGQRLEWMGIINPYSGVTIYNHKFKGRVTLTVDKSANTAYMELSSLRSEDTAVYYCARQDSLLDYAMDYWGQGTTVTVSS VL: DIQMTQSPSSLSASVGDRVTITCHASQGISGNMGWLQQKPGKSFKGLIYHGANLEDGVPSRFSGSGSGADYTLTISSLQPEDFATYYCVQYAQFPYTFGGGTKVEIKR	1.59 nM	0.00114 s⁻¹	716000 M⁻¹ s⁻¹
